# Test: Insulin lispro pharmacokinetics after pump bolus during euglycemic clamp over 7 days of infusion set wear
# Format: in vivo, human (participants with type 1 diabetes mellitus)
# Details: for decline of median total insulin exposure (AUC0–300) from days 0 to 7: n.s.; for AUC0–300 (area under the insulin concentration curve, 0 to 300 min) / Cmax (maximum insulin concentration) / MRT (mean residence time) / t50% (early) (time to reach 50% of Cmax before peak) / t50% (late) (time to reach 50% of Cmax after peak) / tmax (time to maximum insulin concentration): 0.15 U/kg SC bolus by pump, plasma ELISA, median (25th–75th)
# From the text: We performed a prospectively enrolled randomized sequence two-way crossover study of the investigational CBX (Capillary Biomedical, Inc., Irvine, CA) and a commercial angled Teflon (MiniMed™ Silhouette™; Medtronic Diabetes Care, Northridge, CA; indicated for 3-day use) IIS for two weeklong home use periods with four in-patient euglycemic clamp sessions during each of the 7-day periods. Between the two periods, there was a wash out of 14 days (Supplementary Fig. S1).
# Euglycemic clamp experiments were performed at AMCR Institute (in Escondido, CA.) on days 0, 3, 5, and 7 in each treatment period (eight clamps per participant). Participants were admitted to AMCR the evening before the clamp study and glucose was stabilized overnight with intravenous (IV) insulin or glucose as needed. Personal pumps were set to 0.1 U/h overnight and throughout the clamp experiment. Once glucose was stable (95 ± 15 mg/dL) in the morning, IV insulin was stopped 20 min before administering a bolus of 0.15 U/kg of insulin lispro (Eli Lilly, Indianapolis, IN) by pump. Glucose was clamped at 95 ± 15 mg/dL for 300 min or terminated early if runaway hyperglycemia occurred.
# Per participant and clamp, 30 plasma samples were collected in regular intervals and stored at −70°C. Samples were analyzed elsewhere (Northern Lights Mercodia Lispro ELISA, Mercodia AB, Uppsala, Sweden; lowest limit of quantification (LLOQ) = 1.0 mU/L, 94% accuracy[7]). Owing to the small sample size and the intrinsically greater variability in pharmacodynamic measures, the PK results are the only results detailed in this report.
# PK parameters (area under the insulin concentration curve [AUC] over the first 60 or 300 min, respectively; time to maximum insulin concentration [tmax]; maximum insulin concentration [Cmax]; time to half-maximum insulin concentration, early and late [t50%], and mean residence time [MRT]) were tested for treatment effects. […] Estimated means were then back transformed and the ratio between treatments/days (equality means a ratio of 1) tested for significance using mixed model for repeated measures (two-sided, α = 0.05). For simplicity reasons, all data are presented as median (25th–75th percentiles) or mean ± standard deviation.
# [1] = day 0 of IIS wear, CBX IIS, n = 6
# [2] = day 0 of IIS wear, Control IIS, n = 6
# [3] = day 3 of IIS wear, CBX IIS, n = 6
# [4] = day 3 of IIS wear, Control IIS, n = 6
# [5] = day 5 of IIS wear, CBX IIS, n = 6
# [6] = day 5 of IIS wear, Control IIS, n = 6
# [7] = day 7 of IIS wear, CBX IIS, n = 5
# [8] = day 7 of IIS wear, Control IIS, n = 5
substance,measurement,setting,value
insulin lispro,decline of median total insulin exposure (AUC0–300) from days 0 to 7,CBX group,22%
same,acceleration of median tmax by day 7 vs day 0,Control group,63%
same,increase of median early exposure (AUC0–60) by day 7 vs day 0,Control group,34%
same,decline of median total insulin exposure (AUC0–300) from days 0 to 7,Control group,26%
same,"AUC0–300 (area under the insulin concentration curve, 0 to 300 min)",[1],8562 (6576–11416) mU/(min·L)
same,Cmax (maximum insulin concentration),[1],60.4 (33.5–73.6) mU/L
same,MRT (mean residence time),[1],129.5 (117.1–137.5) min
same,t50% (early) (time to reach 50% of Cmax before peak),[1],23.3 (11.8–34.1) min
same,t50% (late) (time to reach 50% of Cmax after peak),[1],163.1 (157.3–181.8) min
same,tmax (time to maximum insulin concentration),[1],65.0 (50.0–90.0) min
same,"AUC0–300 (area under the insulin concentration curve, 0 to 300 min)",[2],8894 (7599–9870) mU/(min·L)
same,Cmax (maximum insulin concentration),[2],61.9 (45.0–82.5) mU/L
same,MRT (mean residence time),[2],118.0 (97.9–131.0) min
same,t50% (early) (time to reach 50% of Cmax before peak),[2],27.4 (19.8–32.7) min
same,t50% (late) (time to reach 50% of Cmax after peak),[2],156.5 (121.2–174.5) min
same,tmax (time to maximum insulin concentration),[2],67.5 (45.0–80.0) min
same,"AUC0–300 (area under the insulin concentration curve, 0 to 300 min)",[3],8281 (7176–10737) mU/(min·L)
same,Cmax (maximum insulin concentration),[3],69.0 (56.2–71.5) mU/L
same,MRT (mean residence time),[3],114.4 (105.9–116.9) min
same,t50% (early) (time to reach 50% of Cmax before peak),[3],18.0 (11.2–19.2) min
same,t50% (late) (time to reach 50% of Cmax after peak),[3],135.4 (120.4–150.0) min
same,tmax (time to maximum insulin concentration),[3],42.5 (35.0–45.0) min
same,"AUC0–300 (area under the insulin concentration curve, 0 to 300 min)",[4],7434 (6600–8282) mU/(min·L)
same,Cmax (maximum insulin concentration),[4],60.2 (56.2–69.7) mU/L
same,MRT (mean residence time),[4],112.4 (104.1–124.3) min
same,t50% (early) (time to reach 50% of Cmax before peak),[4],15.7 (12.2–25.6) min
same,t50% (late) (time to reach 50% of Cmax after peak),[4],119.3 (98.8–152.7) min
same,tmax (time to maximum insulin concentration),[4],32.5 (25.0–50.0) min
same,"AUC0–300 (area under the insulin concentration curve, 0 to 300 min)",[5],8175 (7194–8538) mU/(min·L)
same,Cmax (maximum insulin concentration),[5],93.6 (73.9–104.4) mU/L
same,MRT (mean residence time),[5],89.0 (76.9–91.7) min
same,t50% (early) (time to reach 50% of Cmax before peak),[5],12.4 (10.3–14.2) min
same,t50% (late) (time to reach 50% of Cmax after peak),[5],74.8 (66.7–76.2) min
same,tmax (time to maximum insulin concentration),[5],25.0 (25.0–30.0) min
same,"AUC0–300 (area under the insulin concentration curve, 0 to 300 min)",[6],7253 (5949–7625) mU/(min·L)
same,Cmax (maximum insulin concentration),[6],72.6 (54.1–91.0) mU/L
same,MRT (mean residence time),[6],88.7 (85.7–110.5) min
same,t50% (early) (time to reach 50% of Cmax before peak),[6],11.5 (8.2–13.1) min
same,t50% (late) (time to reach 50% of Cmax after peak),[6],69.3 (68.2–88.3) min
same,tmax (time to maximum insulin concentration),[6],25.0 (25.0–30.0) min
same,"AUC0–300 (area under the insulin concentration curve, 0 to 300 min)",[7],6684 (6402–8342) mU/(min·L)
same,Cmax (maximum insulin concentration),[7],92.3 (78.4–101.5) mU/L
same,MRT (mean residence time),[7],75.7 (66.7–87.0) min
same,t50% (early) (time to reach 50% of Cmax before peak),[7],11.6 (9.5–14.2) min
same,t50% (late) (time to reach 50% of Cmax after peak),[7],62.5 (60.7–68.8) min
same,tmax (time to maximum insulin concentration),[7],25.0 (25.0–25.0) min
same,"AUC0–300 (area under the insulin concentration curve, 0 to 300 min)",[8],6603 (5822–6773) mU/(min·L)
same,Cmax (maximum insulin concentration),[8],80.9 (79.0–84.0) mU/L
same,MRT (mean residence time),[8],75.4 (62.2–98.6) min
same,t50% (early) (time to reach 50% of Cmax before peak),[8],12.3 (11.5–16.4) min
same,t50% (late) (time to reach 50% of Cmax after peak),[8],63.5 (57.5–77.9) min
same,tmax (time to maximum insulin concentration),[8],25.0 (20.0–30.0) min
same,decline of AUC0–300 from days 0 to 7,"pooled data from both IIS groups, 0.15 U/kg bolus",~24%
